B1: A8V/S10A/K15L variant Grb2 SH2 domain expressed as a GFP-fusion protein in HEK 293 cells (designed binder)
chain: MKPHPWFFGKIPRAKAEEMLSKQRHDGAFLIRESESVPGDFALSVKFGNDVQHFLVLRDGAGKYFLWVVKFNSLNELVDYHRSTSVSRNQQIFLRDIEQVPQQP
notes: also called TrM Grb2 SH2 domain; 8V/10A/15L-substituted Grb2 SH2 domain; not shown: GFP encoded by the pEGFPC2 vector (Clontech)
B2: T8V/C10A/K15L variant Src SH2 domain expressed as a GFP-fusion protein in HEK 293 cells (designed binder)
chain: DSIQAEEWYFGKITRRESERLLLNAENPRGTFLVRESETVKGAYALSVSDFDNAKGLNVKHYLIRKLDSGGFYITSRTQFNSLQQLVAYYSKHADGLCHRLTTVCPTSK
notes: domain: SH2 domain; also called TrM Src SH2 domain; 8V/10A/15L-substituted Src SH2 domain; not shown: GFP encoded by the pEGFPC2 vector (Clontech)
B3: T8V/S10A/K15L variant Fyn SH2 domain (designed binder)
chain: MKIEEHHHHHHSSGRENLYFQGGAAQPAAPVDSIQAEEWYFGKLGRKDAERQLLSFGNPRGTFLIRESETVKGAYALSIRDWDDMKGDHVKHYLIRKLDNGGYYITTRAQFETLQQLVQHYSERAAGLSSRLVVPSHKGAAA
B4: wild-type Fyn SH2 domain expressed as a GFP-fusion protein in HEK 293 cells (other, human, UniProt P06241 139-249, looked up)
chain: APVDSIQAEEWYFGKLGRKDAERQLLSFGNPRGTFLIRESETTKGAYSLSIRDWDDMKGDHVKHYKIRKLDNGGYYITTRAQFETLQQLVQHYSERAAGLCCRLVVPCHKG
notes: domain: SH2 domain; also called Wt Fyn SH2 domain; Wt; not shown: GFP encoded by the pEGFPC2 vector (Clontech)

Tests used:
EGF receptor (EGFR) [1] = molecular target: T1, EGF receptor (EGFR) (UniProt P00533 25-1210, tyrosine-phosphorylated in the C-terminal tail (cells treated with EGF and pervanadate); sites not stated); assay: co-immunoprecipitation from HEK 293 cells
T1 construct: Endogenous receptor of HEK 293 cells; detected with an anti-EGFR rabbit polyclonal antibody; also called epidermal growth factor receptor

EGFR-pY978 peptide = molecular target: T2, EGFR-pY978 peptide; assay: fluorescence polarization in solution; reference wild-type Fyn SH2 domain
T2 construct: Synthetic pTyr-containing peptide
Experimental: Measurements of fluorescence polarization were conducted by titrating the SH2 domain concentration, while keeping the peptide concentration constant. Kd values were calculated with the GraphPad Prism software, by assuming the one-site binding model (GraphPad Software).

EGF receptor (EGFR) [2] = molecular target: T1, EGF receptor (EGFR); assay: co-immunoprecipitation from HEK 293 cells, anti-GFP and anti-EGFR antibodies
Experimental: HEK 293 cells were lysed with cold lysis buffer (1% NP-40, 50 mM Tris-HCl pH 7.4, 150 mM NaCl, 2 mM EDTA, 50 mM NaF, 10% Glycerol and protease inhibitor cocktail diluted at 1:1000). After centrifugation at 13,000*g for 15 min, the supernatants were collected. After clearance of the lysate with appropriate pre-immune serum and protein G (Roche), immnuoprecipitation (IP) and immunoblotting (IB) were performed.

| Binder | binding result (EGF receptor (EGFR) [1]) | other results |
| --- | --- | --- |
| B1 | binds | – |
| B2 | binds | – |
| B3 | – | fold affinity increase (Kd[wild-type] divided by Kd[variant]) (EGFR-pY978 peptide): > 1000 fold |
| B4 | – | binding result (EGF receptor (EGFR) [2]): no binding |
